Data published in patent US20220332795A1 (ARO BIOTHERAPEUTICS, published 2022).

What was measured:
CD71 apical domain [1] = target: T1, CD71 apical domain (UniProt P02786 189-383, limits assumed); test: solution ELISA
T1 construct: domain: Apical domain

[2] = target: T2, recombinant biotinylated human CD71 extracellular domain (human, UniProt P02786 89-760, biotinylated); test: solution ELISA
T2 construct: extracellular domain; also called hCD71; huCD71 ECD

CD71 apical domain [3] = target: T1, CD71 apical domain; test: solution ELISA, signal ratio to HSA
[4] = target: T2, recombinant biotinylated human CD71 …; test: solution ELISA, signal ratio to HSA

T2 sequence (P02786 other isoform, or with tags, fused parts or gaps): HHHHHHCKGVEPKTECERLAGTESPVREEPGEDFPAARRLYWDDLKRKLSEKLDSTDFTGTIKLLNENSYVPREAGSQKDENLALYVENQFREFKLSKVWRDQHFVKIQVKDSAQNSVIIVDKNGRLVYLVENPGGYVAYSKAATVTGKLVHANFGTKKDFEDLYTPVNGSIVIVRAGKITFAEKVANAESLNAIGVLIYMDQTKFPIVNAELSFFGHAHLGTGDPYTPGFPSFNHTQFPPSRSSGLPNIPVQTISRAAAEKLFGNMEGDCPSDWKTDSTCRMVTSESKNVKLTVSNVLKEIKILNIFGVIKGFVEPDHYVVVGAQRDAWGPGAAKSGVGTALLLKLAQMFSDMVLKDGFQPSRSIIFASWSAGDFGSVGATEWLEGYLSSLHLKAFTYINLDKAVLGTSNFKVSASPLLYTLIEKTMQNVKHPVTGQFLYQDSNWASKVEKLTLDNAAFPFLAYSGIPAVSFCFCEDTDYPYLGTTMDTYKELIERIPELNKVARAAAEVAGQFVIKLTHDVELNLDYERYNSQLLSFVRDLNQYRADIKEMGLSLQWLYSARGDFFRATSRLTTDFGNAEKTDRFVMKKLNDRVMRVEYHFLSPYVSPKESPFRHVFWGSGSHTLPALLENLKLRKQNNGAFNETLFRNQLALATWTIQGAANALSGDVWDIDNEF
T1 sequence (P02786 189-383 limits assumed): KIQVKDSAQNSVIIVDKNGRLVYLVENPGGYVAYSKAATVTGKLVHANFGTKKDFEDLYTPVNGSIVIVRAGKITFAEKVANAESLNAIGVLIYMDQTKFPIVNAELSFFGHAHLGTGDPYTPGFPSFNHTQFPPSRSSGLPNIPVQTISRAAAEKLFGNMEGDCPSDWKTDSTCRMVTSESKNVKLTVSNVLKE

Binder	Apical domain, RLU (CD71 apical domain [1])	hCD71, RLU [2]	apical domain:HSA (CD71 apical domain [3])	hCD71:HSA [4]
SEQ ID NO 137 (designed binder, FN3 domain) MLPAPKNLVVSRVTEDSARLSWTAPDAAFDSFYIAYAEPRPDGEAIVLDVPGSERSYDLTGLKPGTEYSVLIHGVKGGLLSSPLVAEFTT	7.87e+06 RLU	5.11e+06 RLU	412	268
SEQ ID NO 160 (designed binder, FN3 domain) MLPAPKNLVVSRVTEDSARLSWTAPDAAFDSFYIAYAEPRPDGEAIVLTVPGSERSYDLTGLKPGTEYSVLIHGVKGGLLSSPLLAYFTT	8.31e+06 RLU	4.46e+06 RLU	378	203
SEQ ID NO 149 (designed binder, FN3 domain) MLPAPKNLVVSRVTEDSARLSWTAPDAAFDSFYIAYAEPRPDGEAIQLWVPGSERSYDLTGLKPGTEYSVLIHGVKGGLLSSPLSAIFTT	6.16e+06 RLU	1.56e+06 RLU	361	91.2
SEQ ID NO 152 (designed binder, FN3 domain) MLPAPKNLVVSRVTEDSARLSWTAPDAAFDSFYIAYAEPRPDGEAITLDVPGSERSYDLTGLKPGTEYSVLIHGVKGGLLSSPLYAFFTT	4.96e+06 RLU	764000 RLU	359	55.4
SEQ ID NO 145 (designed binder, FN3 domain) MLPAPKNLVVSRVTEDSARLSWTAPDAAFDSFYIAYAEPRPDGEAILLQVPGSERSYDLTGLKPGTEYSVLIHGVKGGLLSSPLTAIFTT	8.3e+06 RLU	6.2e+06 RLU	466	348
SEQ ID NO 148 (designed binder, FN3 domain) MLPAPKNLVVSRVTEDSARLSWTAPDAAFDSFYIAYAEPRPDGEAIALHVPGSERSYDLTGLKPGTEYSVLIHGVKGGLLSSPLRAVFTT	3.41e+06 RLU	290000 RLU	248	21.1
SEQ ID NO 147 (designed binder, FN3 domain) MLPAPKNLVVSRVTEDSARLSWTAPDAAFDSFYIAYAEPRPDGEAIVLEVPGSERSYDLTGLKPGTEYSVLIHGVKGGLLSSPLDAHFTT	6.89e+06 RLU	2.94e+06 RLU	478	204
SEQ ID NO 155 (designed binder, FN3 domain) MLPAPKNLVVSRVTEDSARLSWTAPDAAFDSFYIAYAEPRPDGEAIWLVVPGSERSYDLTGLKPGTEYSVLIHGVKGGLLSSPLHARFTT	4.86e+06 RLU	513000 RLU	263	27.7
SEQ ID NO 157 (designed binder, FN3 domain) MLPAPKNLVVSRVTEDSARLSWTAPDAAFDSFYIAYAEPRPDGEAILLHVPGSERSYDLTGLKPGTEYSVLIHGVKGGLLSSPLSAISTT	7.39e+06 RLU	3.61e+06 RLU	194	94.9
SEQ ID NO 144 (designed binder, FN3 domain) MLPAPKNLVVSRVTEDSARLSWTAPDAAFDSFYIAYAEPRPDGEAIGLYVPGSERSYDLTGLKPGTEYSVLIHGVKGGLLSSPLGAFFTT	3.91e+06 RLU	516000 RLU	234	30.8
SEQ ID NO 146 (designed binder, FN3 domain) MLPAPKNLVVSRVTEDSARLSWTAPDAAFDSFYIAYAEPRPDGEAITLHVPGSERSYDLTGLKPGTEYSVLIHGVKGGLLSSPLSAIFTT	5.72e+06 RLU	1.08e+06 RLU	337	63.7
SEQ ID NO 169 (designed binder, FN3 domain) MLPAPKNLVVSRVTEDSARLSWTAPDAAFDSFYIAYAEPRPDGEAILLLVPGSERSYDLTGLKPGTEYSVLIHGVKGGLLSSPLSAVFTT	7.21e+06 RLU	4.14e+06 RLU	420	241
SEQ ID NO 158 (designed binder, FN3 domain) MLPAPKNLVVSRVTEDSARLSWTAPDAAFDSFYIAYAEPRPDGEAIILQVPGSERSYDLTGLKPGTEYSVLIHGVKGGLLSSPLSAVFTT	8.01e+06 RLU	4.99e+06 RLU	500	312
SEQ ID NO 166 (designed binder, FN3 domain) MLPAPKNLVVSRVTEDSARLSWTAPDAAFDSFYIAYAEPRPDGEAIFLQVPGSERSYDLTGLKPGTEYSVLIHGVKGGLLSSPLNAFFTT	6.08e+06 RLU	1.22e+06 RLU	170	34
SEQ ID NO 159 (designed binder, FN3 domain) MLPAPKNLVVSRVTEDSARLSWTAPDAAFDSFYIAYAEPRPDGEAIYLKVPGSERSYDLTGLKPGTEYSVLIHGVKGGLLSSPLVAHFTT	4.43e+06 RLU	185000 RLU	345	14.4
SEQ ID NO 153 (designed binder, FN3 domain) MLPAPKNLVVSRVTEDSARLSWTAPDAAFDSFYIAYAEPRPDGEAIALHVPGSERSYDLTGLKPGTEYSVLIHGVKGGLLSSPLSAIFTT	3.96e+06 RLU	339000 RLU	186	16
SEQ ID NO 167 (designed binder, FN3 domain) MLPAPKNLVVSRVTEDSARLSWTAPDAAFDSFFIGYLEPQPPGEAIILGVPGSERSYDLTGLKPGTEYSVLIHGVKGGLLSSPLHAYSTT	128000 RLU	4.17e+06 RLU	0.7	23.2
SEQ ID NO 154 (designed binder, FN3 domain) MLPAPKNLVVSRVTEDSARLSWTAPDAAFDSFYIAYAEPRPDGEAIGLWVPGSERSYDLTGLKPGTEYSVLIHGVKGGLLSSPLIAHFTT	5.54e+06 RLU	779000 RLU	239	33.7
SEQ ID NO 156 (designed binder, FN3 domain) MLPAPKNLVVSRVTEDSARLSWTAPDAAFDSFYIAYAEPRPDGEAIFLQVPGSERSYDLTGLKPGTEYSVLIHGVKGGLLSSPLAAVFTT	6.71e+06 RLU	2.46e+06 RLU	286	104
SEQ ID NO 141 (designed binder, FN3 domain) MLPAPKNLVVSRVTEDSARLSWTAPDAAFDSFYIAYAEPRPDGEAIFLGVPGSERSYDLTGLKPGTEYSVLIHGVKGGLLSSPLIAFFTT	4.96e+06 RLU	965000 RLU	190	37
SEQ ID NO 150 (designed binder, FN3 domain) MLPAPKNLVVSRVTEDSARLSRTAPDAAFDSFYIAYAEPRPDGEAIVLIVPGSERSYDLTGLKPGTEYSVLIHGVKGGLLSSPLSAIFTT	3.16e+06 RLU	1.3e+06 RLU	30.8	12.7
SEQ ID NO 165 (designed binder, FN3 domain) MLPAPKNLVVSRVTEDSARLSWTAPDAAFDSFYIAYAEPRPDGEAIVLQVPGSERSYDLTGLKPGTEYSVLIHGVKGGLLSSPLAAWFTT	8.37e+06 RLU	4.91e+06 RLU	299	175
SEQ ID NO 143 (designed binder, FN3 domain) MLPAPKNLVVSRVTEDSARLSWTAPDAAFDSFYIAYAEPRPDGEAILLFVPGSERSYDLTGLKPGTEYSVLIHGVKGGLLSSPLVAHFTT	7.51e+06 RLU	3.25e+06 RLU	363	157
SEQ ID NO 138 (designed binder, FN3 domain) MLPTPKNLVVSRVTEDSARLSWTAPDAAFDSFYIAYAEPRPDGEAIQLRVPGSERSYDLTGLKPGTEYSVLIHGVKGGLLSSPLHASFTT	5.35e+06 RLU	1.08e+06 RLU	369	74.3
SEQ ID NO 164 (designed binder, FN3 domain) MLPAPKNLVVSRVTEDSARLSWTAPDAAFDSFYIAYAEPRPDGEAIILRVPGSERSYDLTGLKPGTEYSVLIHGVKGGLLSSPLVAIFTT	8.42e+06 RLU	3.78e+06 RLU	328	147
